Measured values as given in patent publication US20140086916A1 (Merck Sharp & Dohme, published 2014).
Read-outs that look alike come from different tables or passages of the source.

Assays:
[1] = molecular target: T1, FcγRIIIa-V158 (Pichia pastoris produced) (UniProt P08637 17-208, limits assumed); experiment: fold change of the Table 12 affinities (reference row)
T1 construct: also called FcγRIIIA LV; FcgRIIIA LV
Experimental: (§1) Fcγ receptor binding assays were carried out as described (Shields, et al. (2001) J. Biol. Chem. 276:6591-6604) with minor modifications. High protein binding 96-well plates (Corning Costar) were coated with 100 μL per well of Fcγ receptor solutions in PBS at the following concentrations: 1 μg/mL for both FcγRI (R&D Systems) and FcγRIIa (Pichia pastoris produced), 2 μg/mL for FcγRIIb (P. pastoris produced), 0.8 μg/mL for FcγRIIIa-F158, and 0.4 μg/mL for FcγRIIIa-V158 (both P. pastoris produced). All Pichia pastoris produced receptors were expressed and purified as described (Li, et al. (2006) Nature Biotechnology 24:210-215). Monomeric antibody samples added to the FcγRI plate were serially diluted in assay diluent (1×PBS, 1% BSA, and 0.05% Tween20) and 100 μL, per well was added to the plate. Antibody samples prepared for the remaining receptors require a one hour dimerization step with half molar ratio of goat anti-human IgG F(ab′)2 F(ab′)2 that is conjugated with alkaline phosphatase for detection. These dimerized F(ab′)2/antibody complexes were also serially diluted and 100 μL per well were added to the remaining receptor plates and all plates were incubated for one hour at room temperature. FcγRI bound sample antibody was detected using the same goat anti-human IgG F(ab′)2 alkaline phosphatase conjugated F(ab′)2. Sample antibody binding was quantified by measuring excitation at 340 nm and emission at 465 nm after 18 hour incubation with SuperPhos, 4-MUP Fluorescence AP Substrate Detection System (Virolabs).

FcγRIIA H = molecular target: T2, FcγRIIA H (UniProt P12318 34-217, limits assumed); experiment: FcγR affinity assay 'as described in Example 7', n = 3; printed as Affinity (nM) ± STDEV
T2 construct: also called FcgRIIA H
T2 sequence (looked up): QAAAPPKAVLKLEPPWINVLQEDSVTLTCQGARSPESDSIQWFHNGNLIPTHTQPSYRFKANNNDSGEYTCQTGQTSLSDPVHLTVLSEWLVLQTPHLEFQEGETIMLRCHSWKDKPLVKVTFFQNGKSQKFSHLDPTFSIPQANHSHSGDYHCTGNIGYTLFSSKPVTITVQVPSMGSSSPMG
Experimental: as §1

[2] = molecular target: T3, FcγRIIb (Pichia pastoris produced) (UniProt P31994 43-217, limits assumed); experiment: as above
T3 construct: also called FcgRIIB; CD32B
T3 sequence (looked up): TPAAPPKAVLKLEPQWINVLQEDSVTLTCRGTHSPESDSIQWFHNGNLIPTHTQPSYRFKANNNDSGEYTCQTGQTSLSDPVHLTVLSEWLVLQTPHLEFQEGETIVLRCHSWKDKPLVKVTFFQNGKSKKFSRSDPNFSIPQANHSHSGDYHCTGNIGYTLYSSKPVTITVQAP
Experimental: as §1

[3] = molecular target: T4, FcγRIIIa-F158 (Pichia pastoris produced) (UniProt P08637 17-208, limits assumed); experiment: as above
T4 construct: also called FcγRIIIA LF; FcgRIIIA LF
T4 sequence (P08637 17-208 limits assumed): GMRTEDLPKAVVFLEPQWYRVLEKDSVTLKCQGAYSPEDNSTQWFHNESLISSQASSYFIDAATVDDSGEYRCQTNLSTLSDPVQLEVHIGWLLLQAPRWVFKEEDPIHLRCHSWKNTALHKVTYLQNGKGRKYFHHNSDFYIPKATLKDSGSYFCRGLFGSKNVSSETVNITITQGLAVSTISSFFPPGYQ
Experimental: as §1

[4] = molecular target: T1, FcγRIIIa-V158 (Pichia pastoris produced); experiment: as above
Experimental: as §1

[5] = molecular target: T1, FcγRIIIa-V158 (Pichia pastoris produced); experiment: ELISA-type plate assay, FcγR coated, antibody dimerized with AP-conjugated goat anti-human IgG F(ab')2, RFU readout
Experimental: as §1

[6] = molecular target: T1, FcγRIIIa-V158 (Pichia pastoris produced); experiment: as above; remark: listed apart in the source
Experimental: as §1

[7] = molecular target: T1, FcγRIIIa-V158 (Pichia pastoris produced); experiment: as above; remark: listed apart in the source
Experimental: as §1

[8] = molecular target: T1, FcγRIIIa-V158 (Pichia pastoris produced); experiment: as above; remark: listed apart in the source
Experimental: as §1

[9] = molecular target: T1, FcγRIIIa-V158 (Pichia pastoris produced); experiment: as above; remark: listed apart in the source
Experimental: as §1

[10] = molecular target: T1, FcγRIIIa-V158 (Pichia pastoris produced); experiment: as above; remark: listed apart in the source
Experimental: as §1

FcγRI (R&D Systems) = molecular target: T5, FcγRI (R&D Systems) (UniProt P12314 16-288); experiment: ELISA-type plate assay, FcγRI coated, monomeric antibody, detected with AP-conjugated goat anti-human IgG F(ab')2, RFU readout
T5 construct: Bought reagent, coated on the plate at 1 µg/mL; also called Fc gamma receptor I; CD64
T5 sequence (P12314 16-288 limits assumed): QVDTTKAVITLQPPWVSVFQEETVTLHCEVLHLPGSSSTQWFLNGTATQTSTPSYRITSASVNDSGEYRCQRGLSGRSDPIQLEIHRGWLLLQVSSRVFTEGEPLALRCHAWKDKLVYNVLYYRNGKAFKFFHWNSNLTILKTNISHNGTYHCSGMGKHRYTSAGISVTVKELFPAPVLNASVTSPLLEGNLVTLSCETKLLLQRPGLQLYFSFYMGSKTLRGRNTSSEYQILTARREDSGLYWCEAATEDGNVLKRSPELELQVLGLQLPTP
Experimental: as §1, with “These dimerized F(ab′)2/antibody complexes were also serially diluted and 100 μL per well were added to the remaining receptor plates and all plates were incubated for one hour at room temperature.” left out

[11] = molecular target: T4, FcγRIIIa-F158 (Pichia pastoris produced); experiment: ELISA on plate-coated receptor; antibody dimerized with anti-human IgG F(ab')2-AP; ELISA IC50, YGLY23258 (dimer), Table 4 experiment
Experimental: as §1, with “These dimerized F(ab′)2/antibody complexes were also serially diluted and 100 μL per well were added to the remaining receptor plates and all plates were incubated for one hour at room temperature.” left out

[12] = molecular target: T1, FcγRIIIa-V158 (Pichia pastoris produced); experiment: as above
Experimental: as §1, with “These dimerized F(ab′)2/antibody complexes were also serially diluted and 100 μL per well were added to the remaining receptor plates and all plates were incubated for one hour at room temperature.” left out

[13] = molecular target: T3, FcγRIIb (Pichia pastoris produced); experiment: FcγR affinity assay 'as described in Example 7', n = 3; printed as Affinity (nM) ± STDEV; Table 12 affinity (nM) assay, n = 3; not the dimer ELISA of Tables 3-7

T1 sequence (P08637 17-208 F176V limits assumed): as the sequence (P08637 17-208 limits assumed) above, with F160V counted along it

B1: 1F11 wildtype (parent) humanized anti-PCSK9 monoclonal IgG1 antibody (antibody)
heavy: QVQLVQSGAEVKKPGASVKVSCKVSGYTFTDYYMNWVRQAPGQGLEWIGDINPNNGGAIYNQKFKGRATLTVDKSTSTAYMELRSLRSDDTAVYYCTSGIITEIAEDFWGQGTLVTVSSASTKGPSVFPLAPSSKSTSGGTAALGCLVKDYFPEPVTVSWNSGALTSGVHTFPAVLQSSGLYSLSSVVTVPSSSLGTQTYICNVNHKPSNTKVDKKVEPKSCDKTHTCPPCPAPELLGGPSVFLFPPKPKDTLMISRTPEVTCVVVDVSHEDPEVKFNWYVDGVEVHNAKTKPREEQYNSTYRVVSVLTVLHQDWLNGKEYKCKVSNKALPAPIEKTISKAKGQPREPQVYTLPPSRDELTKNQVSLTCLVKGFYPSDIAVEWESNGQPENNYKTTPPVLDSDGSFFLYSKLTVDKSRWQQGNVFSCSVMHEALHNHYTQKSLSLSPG
light: DIQMTQSPSSLSASVGDRVTITCKASQNVGTNVVWYQQKPGKAPKALIHSASYRYSGVPSRFSGSGSGTDFTLTISSLQPEDFATYYCQQYKTYPYTFGQGTKVEIKRTVAAPSVFIFPPSDEQLKSGTASVVCLLNNFYPREAKVQWKVDNALQSGNSQESVTEQDSKDSTYSLSSTLTLSKADYEKHKVYACEVTHQGLSSPVTKSFNRGEC
notes: Produced in glycoengineered Pichia pastoris GFI5.0 (strain YGLY21351); also called 1F11 IgG1 GS5.0; YGLY21351
B1 was tested, and the “fold change in affinity vs 1F11 IgG1 GS5.0” value [1] was 1 fold, the Kd (FcγRIIA H) was 892 nM and the Kd [2] was 545 nM. The Kd [3] was 203 nM, the Kd [4] was 0.15 nM and the “EC50 (read off the curve)” value [5] was about 0.04 µg/mL. For the same binder, the “EC50 (read off the curve)” value [6] was about 0.03 µg/mL, the “EC50 (read off the curve)” value [7] was about 0.04 µg/mL and the “EC50 (read off the curve)” value [8] was about 0.03 µg/mL. For the same binder, the “EC50 (read off the curve)” value [9] was about 0.03 µg/mL, the “EC50 (read off the curve)” value [10] was about 0.05 µg/mL and the “EC50 (read off the curve)” value (FcγRI (R&D Systems)) was about 0.08 µg/mL.

B2: 1F11 IgG1 F243A/V264A double mutein anti-PCSK9 antibody (antibody)
heavy: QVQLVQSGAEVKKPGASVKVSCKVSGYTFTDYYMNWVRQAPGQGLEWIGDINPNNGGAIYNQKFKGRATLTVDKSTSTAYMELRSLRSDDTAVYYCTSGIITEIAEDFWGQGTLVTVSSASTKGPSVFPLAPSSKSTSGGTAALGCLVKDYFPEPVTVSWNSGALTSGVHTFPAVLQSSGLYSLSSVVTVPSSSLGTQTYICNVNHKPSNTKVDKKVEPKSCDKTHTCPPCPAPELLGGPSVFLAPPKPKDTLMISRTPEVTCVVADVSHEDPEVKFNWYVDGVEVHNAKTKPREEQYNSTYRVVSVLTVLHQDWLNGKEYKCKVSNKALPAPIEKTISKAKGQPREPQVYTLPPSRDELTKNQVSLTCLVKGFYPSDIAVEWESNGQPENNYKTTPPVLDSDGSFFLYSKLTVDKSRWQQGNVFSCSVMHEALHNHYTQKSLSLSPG
light: DIQMTQSPSSLSASVGDRVTITCKASQNVGTNVVWYQQKPGKAPKALIHSASYRYSGVPSRFSGSGSGTDFTLTISSLQPEDFATYYCQQYKTYPYTFGQGTKVEIKRTVAAPSVFIFPPSDEQLKSGTASVVCLLNNFYPREAKVQWKVDNALQSGNSQESVTEQDSKDSTYSLSSTLTLSKADYEKHKVYACEVTHQGLSSPVTKSFNRGEC
notes: sialylated N-glycans; also called 1F11 DM; YGLY23258
For B2, the Kd [3] was 2520 nM, the Kd [4] was 97 nM and the “EC50 (read off the curve)” value [5] was about 0.1 µg/mL. The “EC50 (read off the curve)” value [6] was about 0.1 µg/mL, the “EC50 (read off the curve)” value [7] was about 0.1 µg/mL and the “EC50 (read off the curve)” value [8] was about 0.2 µg/mL. For the same binder, the “EC50 (read off the curve)” value [9] was about 0.2 µg/mL, the “EC50 (read off the curve)” value [10] was about 0.1 µg/mL and the IC50 [11] was 0.69 µg/mL. The IC50 [12] was 0.12 µg/mL and the Kd [13] was 1690 nM.
